The values that follow come from patent JP2019026625A (dated 2019).

The target of this test is T1, FLAGタグとイヌCD20の融合タンパク (Jurkat/cCD20 に過剰発現) (イヌ (dog), UniProt Q3C2E2 1-297).
T1 construct: whole, on cells; Overexpressed in Jurkat cells by retroviral transduction (pMx-IP); Used whole on cells for flow cytometry and as 1% NP40 cell lysate for immunoprecipitation; also called canine CD20-FLAG; not shown: FLAG tag added at the C-terminus
T1 sequence (looked up): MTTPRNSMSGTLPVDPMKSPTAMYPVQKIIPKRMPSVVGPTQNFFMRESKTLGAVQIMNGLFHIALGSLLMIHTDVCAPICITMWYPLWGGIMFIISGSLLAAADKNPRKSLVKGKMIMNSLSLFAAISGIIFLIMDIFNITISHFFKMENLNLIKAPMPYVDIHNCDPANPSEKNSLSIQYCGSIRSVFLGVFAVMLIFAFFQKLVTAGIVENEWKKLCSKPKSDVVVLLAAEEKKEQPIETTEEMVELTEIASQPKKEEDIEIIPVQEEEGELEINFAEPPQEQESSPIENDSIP
The experiment in a line: flow cytometry on Jurkat/cCD20 cells, secondary antibody.

B1: 4E1-7抗体 (イヌCD20に対するラットモノクローナル抗体) (antibody, V domains shown)
VH: EVQLVESGGGLVQPGASLKLSCVASGFTFNDYWMSWVRQTPGKTMEWIGDIKYDGSYTNYAPSLKNRFTISRDNAKSTLYLQMSNVRSEDTATYYCTREAYYYSGDYWGQGVMVTVSS
VL: DIVLTQSPALAVSLGQRATISCKTNQNVDYYGNSYMHWYQQKPGQQPKLLIYLASNLASGIPARFSGRGSGTDFTLTIDPVEADDTATYYCQQSRNLPYTFGAGTKLELKR
notes: also called 4E1-7 antibody
Regarding B1, the binding result was “binds”.
